The text below walks through data of the supplement of paper PMC12042874.

± gives the uncertainty stated by the source.

This data set can be described thus: amyloid nucleation score (Sup35N fusion, yeast selection) (log enrichment); library NNK2; higher = more nucleation; inactive = no reads after selection. The essentials:
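Nucleation score: DiMSum log enrichment of output over input reads, centred on the mode score of non-aggregating sequences. Only sequences with at least 100 input reads were kept. Reads came from Illumina sequencing of plasmid inserts before and after 7 days of growth at 30°C without adenine and uracil, in psi-negative yeast expressing Sup35N fused to peptides of 20 random codons after 24 hours of induction with 100 μM copper sulfate.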
VIYSELGYHREPVLCG gave an amyloid nucleation score of -0.972 ± 0.49.
Substance YVGGTVGV showed an amyloid nucleation score of -0.807 ± 0.64.
With TFRIERSVGWYCNRASYSCK, the amyloid nucleation score was found to be 1.02 ± 0.21.
Then VIMSGHSNRHWRSGLERMAG, with 0.823 ± 0.27.
VCVGYFCC had an amyloid nucleation score of 5.789 ± 0.024.
Turning to KALYYY, the amyloid nucleation score result is “inactive”.
In the case of TWTLQQSVLVSEKNAKGRVT, the amyloid nucleation score worked out at 3.98 ± 0.078.
In turn, TWRYRKMFASASFA gave an amyloid nucleation score of 0.33 ± 0.16.
Regarding FWIDYLVKFCCDLRMRMILK, the amyloid nucleation score is 1.64 ± 0.2.
For the substance SSRVDVVISHQREAIGSRQC, the amyloid nucleation score was found to be 5.11 ± 0.077.
As to NTMLAFAKKSRMHFSLLLLV, the amyloid nucleation score was -0.022 ± 0.37.
VLTDSCKFYCELCQLNREVY: the amyloid nucleation score stood at 0.443 ± 0.36.
With YRPRDCISRVTYMRTVIVIL, the amyloid nucleation score was -0.121 ± 1.1.
Regarding RPFLSTEKRSILMCRVVKGM, the amyloid nucleation score was -0.254 ± 0.37.
For SILDATCCLGFYKVFAVGMK, the amyloid nucleation score was -0.669 ± 0.44.
Take FLSEFVRIGPYARS: the amyloid nucleation score entry is “inactive”.
On to ISFIDHYVY, for which the amyloid nucleation score entry is “inactive”.
Consider VCVLYLTSTGFLGQLY, for which the amyloid nucleation score came out at 2.74 ± 0.14.
On to NAGVYLFYMCICYVKYFFYM, for which the amyloid nucleation score is -0.87 ± 0.78.
With QVWFYIVVMLVTLTGLGQVG, the amyloid nucleation score stood at 1.16 ± 0.61.
Take TYFARCFDNWTVNWCVARVC: the amyloid nucleation score came to 0.614 ± 0.57.
In turn, ESICAKWFMIDMNSTHWTGF gave an amyloid nucleation score of -0.614 ± 0.41.
TSPGTGIVGDIYLHYIFVKW yielded an amyloid nucleation score of 0.327 ± 0.46.
As for KLWTISVDHPGII, the amyloid nucleation score was -1.45 ± 1.
As to ISSEWEYHDT, the amyloid nucleation score result was “inactive”.
Substance VSYGVWSCIRGL displayed an amyloid nucleation score of -0.324 ± 1.1.
Regarding TVFVWKPRVGKN, the amyloid nucleation score stood at 4.716 ± 0.044.
In the case of GGLVVECRVGW, the amyloid nucleation score was 3.42 ± 0.13.
Substance VLSVGAGKYGLSLISSTTTI displayed an amyloid nucleation score of 1.28 ± 0.66.
The same measure for QLRVYEKFKWCQREWRMDRF: 4.623 ± 0.034.
In turn, IYLGVCYFSALGRDFMSKWW had an amyloid nucleation score of 1.77 ± 0.15.
As to CMESRCFEL, the amyloid nucleation score was found to be 0.438 ± 0.56.
SMRFVLAF: the amyloid nucleation score was -1.92 ± 0.77.
Regarding LGYFTLSFS, the amyloid nucleation score is 0.627 ± 0.81.
For the substance PFILLGTPELVTNGEHAERG, the amyloid nucleation score came to 0.647 ± 0.66.
SLENWLCAVPLCGESLEKVW returned an amyloid nucleation score of 0.469 ± 0.41.
The same measure for KTKVL: 0.348 ± 0.65.
The same measure for VLVFEVPFMFNGAFTMGCIR: 7.075 ± 0.067; for RDDVRRVRPLGSVVQDDSDG: 0.882 ± 0.18; for VGGLDKNHMVLDCLDKGCGM: 0.216 ± 0.62.
The same measure for QNRLLDFFSEPTSRS: -1.16 ± 1.1; for FIMVQRLSCLVVQISRAGAC: 3.79 ± 0.12.
Substance WFMNSNVLHYM displayed an amyloid nucleation score of 0.27 ± 0.64.
The substance AFDGGIFFSLMSFMLVWMGS showed an amyloid nucleation score of -0.345 ± 0.56.
Consider WTWEKWESPHEDGSRRPIVG, for which the amyloid nucleation score was determined as 1.55 ± 0.18.
For the substance MWRTLGYHTNMVSA, the amyloid nucleation score entry was “inactive”.
In turn, NCPSTDFPELMSMQSYCLLC came in with an amyloid nucleation score of -1.71 ± 1.1.
With IVFYFVFRILSYGGSTIPVG, the amyloid nucleation score was -1.15 ± 0.64.
In turn, WLYRQFDLSLESYNWMPGIE yielded an amyloid nucleation score of 3.95 ± 0.12.
For the substance RSYVHYGLLAWCYIRVSWDP, the amyloid nucleation score came to 0.428 ± 0.44.
DRFVWVADTWWSRRNNAAFG gave an amyloid nucleation score of 4.16 ± 0.054.
As for FKICGTFDAFKKL, the amyloid nucleation score entry is “inactive”.
For SLSKKMFRCRS, the amyloid nucleation score was 3.4 ± 0.12.
QSNSSRLHSCRGAIVICI had an amyloid nucleation score of 6.751 ± 0.066.
As to KGSIRCPRVFHQFRFLMG, the amyloid nucleation score was -0.302 ± 0.74.
Take KLFCTKVNIRRTSYSVTSIY: the amyloid nucleation score entry was “inactive”.
Substance MDFVNTIATCNKKREVRFVI gave an amyloid nucleation score of -1.1 ± 0.36.
The substance TLMKVRVYSSYGKVHVGSLA displayed an amyloid nucleation score of 5.03 ± 0.08.
VDITL gave an amyloid nucleation score of -0.779 ± 0.56.
In turn, DGKNYVKTNSNGIRNGMSIW yielded an amyloid nucleation score of -0.576 ± 0.76.
RFDSPG showed an amyloid nucleation score of 0.558 ± 0.4.
Substance RVSIVCWIFVDSREHFFSVK came in with an amyloid nucleation score of -0.818 ± 0.55.
LPCRFKKYALHNQSTTGFWI came in with an amyloid nucleation score of -0.187 ± 0.65.
AFPKLRAGSSLLCA yielded an amyloid nucleation score of 0.74 ± 0.29.
Substance GIVYVALSHYLAVNTKVFMP returned an amyloid nucleation score of 0.477 ± 0.66.
Take LTWRYLLYPLDKFGLETWVL: the amyloid nucleation score amounted to 0.375 ± 0.46.
Then WLDLTYFFSRLGVDVISLQ, with -0.468 ± 0.48.
GCDLKLGVKCLKNERRVPEF came in with an amyloid nucleation score of 0.382 ± 0.8.
Take FAVTGFTWYMKIRCASIPLV: the amyloid nucleation score was determined as 1.65 ± 0.21.
The same measure for CKSLLVKC: “inactive”.
Then VVEVCC, with -0.368 ± 0.27; and RVRNMS, with 0.1 ± 0.32; and ILWGERRIDSRSWKIVARYF, with -0.664 ± 1.1.
Turning to VISCQKPGDIKTYNRVGTTD, the amyloid nucleation score was -0.35 ± 0.23.
Then DFFYTYGGIYGYWSFRHGIV, with -1.24 ± 0.62; and LINWVVVLYG, with 1.9 ± 0.14; and TDLVDPGGTKHRKDS, with 0.523 ± 0.53.
CNSQVVWFFRI displayed an amyloid nucleation score of 4.69 ± 0.062.
Then REVWCRISLKFFYMGDLFVR, with 0.008 ± 0.8; and VHLVSLSLNKTLYDFLTGMG, with -0.178 ± 0.35.
The same measure for IRWMTHWKV: 0.834 ± 0.43; for SSSEFDPSSGSCLYT: -0.847 ± 0.34.
As to RITVEKHSQCALMLHRQYCV, the amyloid nucleation score turned out to be 1.39 ± 0.16.
The same measure for CSFDVYNSDCTTHDDIINNF: -1.43 ± 1; for YSRVILFHNGQMGVVMVPRW: “inactive”; for DYITCQFYLTVFELSCCMSC: 7.932 ± 0.047.
For the substance NGFMDYQLPLAARVKSSWHL, the amyloid nucleation score was 2.97 ± 0.076.
EASKGHISTVLWLGGVIS came in with an amyloid nucleation score of -0.352 ± 0.65.
Take NNYIVTW: the amyloid nucleation score is 0.233 ± 0.74.
Then LLLRGQLQVMPGDPARRMYV, with 0.556 ± 0.29; and NYAPGFTWFSMTNKKDFNVS, with “inactive”.
RLNLGYYKEAVYN showed an amyloid nucleation score of -1.65 ± 0.63.
For the substance VLTSNTANIGTLHLINIRFH, the amyloid nucleation score came out at 8.173 ± 0.026.
The same measure for SLKSAFQMKVISYLVEWLVS: -0.6 ± 0.36.
INRKGRRI returned an amyloid nucleation score of 0.007 ± 0.79.
GRWKDRFCTVGMLYSRG had an amyloid nucleation score of -0.316 ± 0.45.
In turn, AWYWN registered an amyloid nucleation score of -0.49 ± 0.33.
The substance SYSQGD gave an amyloid nucleation score of 0.674 ± 0.53.
The same measure for ILICKILKTRMKVSRDMVMK: “inactive”.
Turning to RHAHWRVSSMDSVQFMWGE, the amyloid nucleation score came to 3.18 ± 0.12.
The same measure for TLVVRGHC: 2.14 ± 0.11; for ECRFKDTATRFRQSLRFYNM: “inactive”.
IRYPIPWFY: the amyloid nucleation score result was “inactive”.
The same measure for SYYELGNDLSACYFYCHRVA: -0.253 ± 0.79.
